Assay results from the supplement of paper PMC11246515.
± gives the standard deviation of the averaged measurements.

Test: total protein half-life in vivo (active degradation + dilution); higher = more stable protein
[1] = E. coli NCM3722 delta-clpP delta-lon delta-hslV, growth: N-lim chemostat, doubling time 6 h
[2] = E. coli NCM3722 delta-hslV, growth: N-lim chemostat, doubling time 6 h
[3] = E. coli NCM3722 delta-lon, growth: N-lim chemostat, doubling time 6 h
[4] = E. coli NCM3722 delta-smpB, growth: N-lim chemostat, doubling time 6 h
[5] = wild type E. coli NCM3722, growth: C-lim chemostat, doubling time 3 h
[6] = wild type E. coli NCM3722, growth: C-lim chemostat, doubling time 6 h
[7] = wild type E. coli NCM3722, growth: C-lim chemostat, doubling time 12 h
[8] = wild type E. coli NCM3722, growth: N-lim chemostat, doubling time 6 h
[9] = wild type E. coli NCM3722, growth: N-lim chemostat, doubling time 12 h
[10] = wild type E. coli NCM3722, growth: P-lim chemostat, doubling time 6 h
[11] = wild type E. coli NCM3722, growth: P-lim chemostat, doubling time 12 h
[12] = E. coli NCM3722 delta-clpP, growth: N-lim chemostat, doubling time 6 h

MKKQTQLLSALALSVGLTLSASFQAVASIPGQVADQAPLPSLAPMLEKVLPAVVSVRVEGTASQGQKIPEEFKKFFGDDLPDQPAQPFEGLGSGVIINASKGYVLTNNHVINQAQKISIQLNDGREFDAKLIGSDDQSDIALLQIQNPSKLTQIAIADSDKLRVGDFAVAVGNPFGLGQTATSGIVSALGRSGLNLEGLENFIQTDASINRGNSGGALLNLNGELIGINTAILAPGGGSVGIGFAIPSNMARTLAQQLIDFGEIKRGLLGIKGTEMSADIAKAFNLDVQRGAFVSEVLPGSGSAKAGVKAGDIITSLNGKPLNSFAELRSRIATTEPGTKVKLGLLRNGKPLEVEVTLDTSTSSSASAEMITPALEGATLSDGQLKDGGKGIKIDEVVKGSPAAQAGLQKDDVIIGVNRDRVNSIAEMRKVLAAKPAIIALQIVRGNESIYLLMR
total protein half-life in vivo [1]: 6.2 ± 0.32 h | total protein half-life in vivo [2]: 6.47 ± 0.17 h | total protein half-life in vivo [3]: 6.3328 ± 0.0043 h | total protein half-life in vivo [4]: 5.56 ± 0.2 h | total protein half-life in vivo [5]: 3.05 ± 0.14 h | total protein half-life in vivo [6]: 6.305 ± 0.0077 h | total protein half-life in vivo [7]: 10 ± 0.31 h | total protein half-life in vivo [8]: 6.06 ± 0.2 h | total protein half-life in vivo [9]: 11.7 ± 0.17 h | total protein half-life in vivo [10]: 5.48 ± 0.15 h | total protein half-life in vivo [11]: 10.6 ± 0.71 h

MKKRIPTLLATMIATALYSQQGLAADLASQCMLGVPSYDRPLVQGDTNDLPVTINADHAKGDYPDDAVFTGSVDIMQGNSRLQADEVQLHQKEAPGQPEPVRTVDALGNVHYDDNQVILKGPKGWANLNTKDTNVWEGDYQMVGRQGRGKADLMKQRGENRYTILDNGSFTSCLPGSDTWSVVGSEIIHDREEQVAEIWNARFKVGPVPIFYSPYLQLPVGDKRRSGFLIPNAKYTTTNYFEFYLPYYWNIAPNMDATITPHYMHRRGNIMWENEFRYLSQAGAGLMELDYLPSDKVYEDEHPNDDSSRRWLFYWNHSGVMDQVWRFNVDYTKVSDPSYFNDFDNKYGSSTDGYATQKFSVGYAVQNFNATVSTKQFQVFSEQNTSSYSAEPQLDVNYYQNDVGPFDTRIYGQAVHFVNTRDDMPEATRVHLEPTINLPLSNNWGSINTEAKLLATHYQQTNLDWYNSRNTTKLDESVNRVMPQFKVDGKMVFERDMEMLAPGYTQTLEPRAQYLYVPYRDQSDIYNYDSSLLQSDYSGLFRDRTYGGLDRIASANQVTTGVTSRIYDDAAVERFNISVGQIYYFTESRTGDDNITWENDDKTGSLVWAGDTYWRISERWGLRGGIQYDTRLDNVATSNSSIEYRRDEDRLVQLNYRYASPEYIQATLPKYYSTAEQYKNGISQVGAVASWPIADRWSIVGAYYYDTNANKQADSMLGVQYSSCCYAIRVGYERKLNGWDNDKQHAVYDNAIGFNIELRGLSSNYGLGTQEMLRSNILPYQNTL
total protein half-life in vivo [1]: 6.76 ± 0.85 h | total protein half-life in vivo [12]: 6.59 ± 0.56 h | total protein half-life in vivo [2]: 6.39 ± 0.33 h | total protein half-life in vivo [3]: 6.28 ± 0.42 h | total protein half-life in vivo [4]: 6 ± 0.24 h | total protein half-life in vivo [5]: 3.25 ± 0.27 h | total protein half-life in vivo [6]: 6.269 ± 0.016 h | total protein half-life in vivo [7]: 13.3 ± 0.19 h | total protein half-life in vivo [8]: 6.7 ± 0.21 h | total protein half-life in vivo [9]: 13 ± 0.44 h | total protein half-life in vivo [10]: 6.34 ± 0.59 h | total protein half-life in vivo [11]: 13.5 ± 0.86 h

MKKRKTVKKRYVIALVIVIAGLITLWRILNAPVPTYQTLIVRPGDLQQSVLATGKLDALRKVDVGAQVSGQLKTLSVAIGDKVKKDQLLGVIDPEQAENQIKEVEATLMELRAQRQQAEAELKLARVTYSRQQRLAQTKAVSQQDLDTAATEMAVKQAQIGTIDAQIKRNQASLDTAKTNLDYTRIVAPMAGEVTQITTLQGQTVIAAQQAPNILTLADMSAMLVKAQVSEADVIHLKPGQKAWFTVLGDPLTRYEGQIKDVLPTPEKVNDAIFYYARFEVPNPNGLLRLDMTAQVHIQLTDVKNVLTIPLSALGDPVGDNRYKVKLLRNGETREREVTIGARNDTDVEIVKGLEAGDEVVIGEAKPGAAQ
total protein half-life in vivo [1]: 6.09 ± 0.067 h | total protein half-life in vivo [3]: 6.45 ± 0.1 h | total protein half-life in vivo [4]: 6.19 ± 0.26 h | total protein half-life in vivo [5]: 3.07 ± 0.068 h | total protein half-life in vivo [6]: 6.04 ± 0.16 h | total protein half-life in vivo [7]: 12.54 ± 0.11 h | total protein half-life in vivo [8]: 6.37 ± 0.067 h | total protein half-life in vivo [9]: 13.5 ± 1.4 h | total protein half-life in vivo [10]: 5.83 ± 0.37 h | total protein half-life in vivo [11]: 12 ± 0.15 h

MKKRVYLIAAVVSGALAVSGCTTNPYTGEREAGKSAIGAGLGSLVGAGIGALSSSKKDRGKGALIGAAAGAALGGGVGYYMDVQEAKLRDKMRGTGVSVTRSGDNIILNMPNNVTFDSSSATLKPAGANTLTGVAMVLKEYPKTAVNVIGYTDSTGGHDLNMRLSQQRADSVASALITQGVDASRIRTQGLGPANPIASNSTAEGKAQNRRVEITLSPL
total protein half-life in vivo [12]: 5.47 h | total protein half-life in vivo [2]: 6.78 ± 0.46 h | total protein half-life in vivo [3]: 6.16 ± 0.47 h | total protein half-life in vivo [4]: 5.3 ± 0.5 h | total protein half-life in vivo [5]: 2.78 ± 0.1 h | total protein half-life in vivo [6]: 5.45 ± 0.11 h | total protein half-life in vivo [8]: 5.81 ± 0.95 h | total protein half-life in vivo [9]: 12.6 h | total protein half-life in vivo [10]: 5.82 h | total protein half-life in vivo [11]: 11.4 ± 0.82 h

MKKTAIAIAVALAGFATVAQAAPKDNTWYTGAKLGWSQYHDTGFINNNGPTHENQLGAGAFGGYQVNPYVGFEMGYDWLGRMPYKGSVENGAYKAQGVQLTAKLGYPITDDLDIYTRLGGMVWRADTKSNVYGKNHDTGVSPVFAGGVEYAITPEIATRLEYQWTNNIGDAHTIGTRPDNGMLSLGVSYRFGQGEAAPVVAPAPAPAPEVQTKHFTLKSDVLFNFNKATLKPEGQAALDQLYSQLSNLDPKDGSVVVLGYTDRIGSDAYNQGLSERRAQSVVDYLISKGIPADKISARGMGESNPVTGNTCDNVKQRAALIDCLAPDRRVEIEVKGIKDVVTQPQA [P0A910]
total protein half-life in vivo [1]: 6.64 ± 0.48 h | total protein half-life in vivo [12]: 6.96 ± 0.27 h | total protein half-life in vivo [2]: 6.86 ± 0.49 h | total protein half-life in vivo [3]: 7.032 ± 0.055 h | total protein half-life in vivo [4]: 5.84 ± 0.27 h | total protein half-life in vivo [5]: 3.41 ± 0.11 h | total protein half-life in vivo [6]: 6.7 ± 0.097 h | total protein half-life in vivo [7]: 13 ± 1.5 h | total protein half-life in vivo [8]: 6.3 ± 0.41 h | total protein half-life in vivo [9]: 13.6 ± 0.81 h | total protein half-life in vivo [10]: 6.224 ± 0.024 h | total protein half-life in vivo [11]: 15 ± 0.76 h
